Assay results taken from the supplement of paper PMC7877785.
± gives the uncertainty stated by the source.

Assay: self-splicing fitness, log relative to wild type (ln ratio); higher = more splicing; Tetrahymena group I intron in knt gene, E. coli kanamycin selection, DiMSum; sequences stand for … in CUCUCU…GGAGGGAAAAGUUAUCAGGCAUGCACCUGGUAGCUAGUCUUUAAACCAAUAGAUUGCAUCGGUUUAAAAGGCAAGACCGUCAAAUUGCGGGAAAGGGGUCAACAGCCGUUCAGUACCAAGUCUCAGGGGAAACUUUGAGAUGGCCUUGCAAAGGGUAUGGUAAUAAGCUGACGGACAUGGUCCUAACCACGCAGCCAAGUCCUAAGUCAACAGAUCUUCUGUUGAUAUGGAUGCAGUUCACAGACUAAAUGUCGGUCGGGGAAGAUGUAUUCUUCUCAUAAGAUAUAGUCGGACCUCUCCUUAAUGGGAGCUAGCGGAUGAAGUGAUGCAACACUGGAGCCGCUGGGAACUAAUUUGUAUGCGAAAGUAUAUUGAUUAGUUUUGGAGUACUCGUGGUCG
Procedure, shortened: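 Library with all eight P1ex-region intron nucleotides randomised, intron inside the knt kanamycin-resistance gene on pET-22b(+), in E. coli BL21(DE3). Cells grew overnight at 37°C or 30°C on LB agar with or without 25 μg/mL kanamycin (plus 100 μg/mL carbenicillin, 50 μM IPTG, 0.2% rhamnose), in six replicate transformations. Pooled colonies were amplicon-sequenced on Illumina HiSeq 2500. DiMSum fitness is the error-weighted combination of wild-type-normalised replicate fold changes, kanamycin versus none.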

Sequence | self-splicing fitness (ln) (30 °C) | self-splicing fitness (ln) (37 °C)
CGACAGCAAUAUUACGCUCG | -3.34 ± 0.37 | -2.18 ± 0.24
UUUUAGCAAUAUUACGAAGU | -3.02 ± 0.35 | -1.65 ± 0.46
GCGAAGCAAUAUUACGAAAU | -3.46 ± 0.35 | -1.07 ± 0.22
AUUGAGCAAUAUUACGCCUG | -2.27 ± 0.33 | –
GGCUAGCAAUAUUACGCAUA | 0.253 ± 0.13 | 0.0704 ± 0.15
GGAAAGCAAUAUUACGGCAA | -0.443 ± 0.12 | -0.141 ± 0.11
AGCGAGCAAUAUUACGGAGC | – | -2.92 ± 0.4
AUGGAGCAAUAUUACGGACA | -3.23 ± 0.43 | -1.91 ± 0.2
CUACAGCAAUAUUACGUCUC | -3.38 ± 0.18 | -2.55 ± 0.3
CACGAGCAAUAUUACGGUAU | -3.04 ± 0.23 | -2.25 ± 0.22
UGCCAGCAAUAUUACGGUGC | -4.01 ± 0.18 | -2.14 ± 0.21
AUUGAGCAAUAUUACGAGAG | – | -2.66 ± 0.29
UAUGAGCAAUAUUACGCCGA | -2.04 ± 0.34 | -1.73 ± 0.26
AUUAAGCAAUAUUACGUAGA | -2.39 ± 0.15 | -0.947 ± 0.15
GAGGAGCAAUAUUACGUCAC | -2.85 ± 0.25 | –
UCAAAGCAAUAUUACGGGGU | -3.42 ± 0.17 | -3.33 ± 0.26
UCAUAGCAAUAUUACGUGCU | -2.6 ± 0.17 | -1.99 ± 0.11
AACCAGCAAUAUUACGCAGG | -4.46 ± 0.2 | -2.28 ± 0.14
AAGUAGCAAUAUUACGGAGA | -3.93 ± 0.37 | -2.34 ± 0.39
CAGAAGCAAUAUUACGAUCA | -2.19 ± 0.14 | -1.84 ± 0.17
UUAUAGCAAUAUUACGCCUC | -2.77 ± 0.39 | -1.59 ± 0.3
AGGCAGCAAUAUUACGUAUU | -1.41 ± 0.095 | -1.22 ± 0.12

Sequence | self-splicing fitness (ln) (30 °C) | self-splicing fitness (ln) (37 °C)
UAACAGCAAUAUUACGGCCC | -2.08 ± 0.35 | –
AGACAGCAAUAUUACGCGGC | -3.51 ± 0.24 | -2.15 ± 0.21
CAUUAGCAAUAUUACGUGAU | -3.57 ± 0.12 | -1.87 ± 0.1
CGACAGCAAUAUUACGUUGC | -3.9 ± 0.37 | -2.35 ± 0.36
UAUCAGCAAUAUUACGGCCG | -0.163 ± 0.11 | 0.391 ± 0.16
UGAAAGCAAUAUUACGCGCA | -0.0804 ± 0.12 | 0.142 ± 0.15
ACGUAGCAAUAUUACGAUGU | -2.37 ± 0.14 | -1.6 ± 0.17
ACGGAGCAAUAUUACGAGGU | -2.12 ± 0.22 | -2.5 ± 0.29
AAAAAGCAAUAUUACGAUUC | -0.58 ± 0.091 | -0.42 ± 0.12
CAUCAGCAAUAUUACGGUCC | -1.37 ± 0.2 | -0.885 ± 0.29
AGACAGCAAUAUUACGGGUU | -1.96 ± 0.1 | -1.12 ± 0.12
UCAUAGCAAUAUUACGCUCA | -1.82 ± 0.15 | -0.493 ± 0.15
ACACAGCAAUAUUACGUACC | -1.43 ± 0.11 | -1.12 ± 0.15
CAGCAGCAAUAUUACGUAAG | -0.365 ± 0.046 | 0.0316 ± 0.067
ACACAGCAAUAUUACGCCUG | -0.898 ± 0.07 | -0.245 ± 0.076
GUACAGCAAUAUUACGCCUA | -1.06 ± 0.099 | -0.254 ± 0.09
GUGCAGCAAUAUUACGGGGC | -1.75 ± 0.15 | -2.63 ± 0.27
GGAUAGCAAUAUUACGCCGA | -0.933 ± 0.13 | -0.0698 ± 0.14
AAUUAGCAAUAUUACGAGUU | -1.48 ± 0.12 | -1.28 ± 0.15
ACGGAGCAAUAUUACGAACU | -0.565 ± 0.11 | -0.0683 ± 0.16
GAAUAGCAAUAUUACGAAGU | – | -2.45 ± 0.2
CACAAGCAAUAUUACGAAGG | -1.45 ± 0.096 | -0.993 ± 0.12
